For experiment [1], the target named is T1, endogenous neurofascin on cultured DRG neurons (rat, UniProt P97685 25-1240).
T1 construct: whole, on cells
T1 sequence (looked up): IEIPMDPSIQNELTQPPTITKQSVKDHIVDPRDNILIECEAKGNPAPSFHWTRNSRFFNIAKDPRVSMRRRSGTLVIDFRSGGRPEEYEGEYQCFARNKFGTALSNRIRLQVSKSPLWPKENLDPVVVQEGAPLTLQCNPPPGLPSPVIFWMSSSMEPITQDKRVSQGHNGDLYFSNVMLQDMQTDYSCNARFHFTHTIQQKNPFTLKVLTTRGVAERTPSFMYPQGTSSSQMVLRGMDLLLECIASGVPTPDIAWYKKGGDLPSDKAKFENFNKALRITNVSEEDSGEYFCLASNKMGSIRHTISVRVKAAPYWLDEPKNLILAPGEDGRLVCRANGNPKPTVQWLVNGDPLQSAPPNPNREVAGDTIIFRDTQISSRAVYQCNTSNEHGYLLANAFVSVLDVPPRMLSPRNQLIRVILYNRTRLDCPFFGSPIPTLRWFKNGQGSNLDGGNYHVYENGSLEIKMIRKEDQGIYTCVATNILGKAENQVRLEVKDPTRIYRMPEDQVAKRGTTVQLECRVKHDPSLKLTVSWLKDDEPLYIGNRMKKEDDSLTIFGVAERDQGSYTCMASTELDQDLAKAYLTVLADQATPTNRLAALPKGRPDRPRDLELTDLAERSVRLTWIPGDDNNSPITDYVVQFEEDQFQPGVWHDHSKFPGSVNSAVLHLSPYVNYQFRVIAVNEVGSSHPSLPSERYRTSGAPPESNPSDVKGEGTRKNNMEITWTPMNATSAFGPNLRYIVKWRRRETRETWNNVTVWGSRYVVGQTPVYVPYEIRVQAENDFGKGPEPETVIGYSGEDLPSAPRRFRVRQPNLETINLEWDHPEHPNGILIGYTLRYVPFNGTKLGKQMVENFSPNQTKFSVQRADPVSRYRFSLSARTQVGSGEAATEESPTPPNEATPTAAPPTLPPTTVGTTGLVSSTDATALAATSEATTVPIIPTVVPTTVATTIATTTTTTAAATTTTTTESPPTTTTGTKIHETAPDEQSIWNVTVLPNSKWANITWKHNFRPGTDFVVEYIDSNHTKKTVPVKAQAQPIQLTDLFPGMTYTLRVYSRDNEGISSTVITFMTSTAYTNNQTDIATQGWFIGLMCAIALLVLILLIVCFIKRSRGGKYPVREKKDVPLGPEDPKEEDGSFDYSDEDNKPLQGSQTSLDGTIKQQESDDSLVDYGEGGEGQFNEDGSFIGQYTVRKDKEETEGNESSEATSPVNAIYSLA
The experiment in a line: co-clustering on DRG neurons after aggregation of Necl4-Fc. The method, then:
(§1) Binding experiments were done by incubating the cells with medium containing different the Fc-fusions proteins pre-incubated with anti human Fc-Cy3 as described previously (Eshed et al., 2005). For clustering experiments, purified DRG-neurons or isolated Schwann cells were incubated with medium containing the respective Fc-fusion protein as described above, washed once and grown for additional 24 (DRG) or 4 hours (Schwann) before fixing. Fc-perturbation experiments were preformed by adding […] purified proteins to the medium of dissociated DRG cultures 2 days before the induction of myelination. Fresh medium containing the Fc-fusion proteins was replaced every second day and the cultures were fixed and stained after 11-12 days of myelination.

The target in experiment [2] is T2, endogenous gliomedin on cultured rat Schwann cells (rat, UniProt Q80WL1 1-549).
T2 construct: whole, on cells; also called Gldn
T2 sequence (looked up): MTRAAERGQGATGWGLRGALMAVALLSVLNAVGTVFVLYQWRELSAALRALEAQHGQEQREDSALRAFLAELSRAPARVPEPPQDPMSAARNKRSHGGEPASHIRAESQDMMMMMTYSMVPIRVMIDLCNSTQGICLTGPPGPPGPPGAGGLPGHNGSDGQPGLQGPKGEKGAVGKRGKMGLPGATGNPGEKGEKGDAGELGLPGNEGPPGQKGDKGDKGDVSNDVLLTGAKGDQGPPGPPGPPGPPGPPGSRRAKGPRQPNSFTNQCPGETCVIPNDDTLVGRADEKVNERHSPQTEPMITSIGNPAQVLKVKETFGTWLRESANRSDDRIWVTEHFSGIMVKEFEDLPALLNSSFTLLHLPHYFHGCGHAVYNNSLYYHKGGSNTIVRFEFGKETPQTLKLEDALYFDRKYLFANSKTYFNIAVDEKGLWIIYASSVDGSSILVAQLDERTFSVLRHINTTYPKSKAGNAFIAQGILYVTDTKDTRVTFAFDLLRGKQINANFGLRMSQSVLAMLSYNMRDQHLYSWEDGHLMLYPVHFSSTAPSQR
The experiment in a line: co-clustering on rat Schwann cells after aggregation of Necl1-Fc with a secondary antibody to human Fc. The method, then:
as §1
To further determine whether Necl4 is the Schwann cell receptor for axonal Necls, we examined the ability of Necl1-Fc and Necl3-Fc to bind Schwann cells that were transfected with Necl4-specific siRNAs to block its expression (FIG. 10B). In contrast to Schwann cells transfected with a control siRNA, down-regulation of Necl4 in Schwann cells by siRNA abolished the binding of Necl1-Fc and Necl3-Fc. […] In a reciprocal set of experiments, reduction of Necl1 expression in DRG neurons by transfection of siRNA abolished the binding of Necl4-Fc (FIG. 11).

B1: Necl4-Fc (extracellular domain of Necl4 fused to the constant region of human IgG1) (Fc fusion)
chain: QEVQTENVTVAEGGVAEITCRLHQYDGSIVVIQNPARQTLFFNGTRALKDERFQLEEFSPRRVRIRLSDARLEDEGGYFCQLYTEDTHHQIATLTVLVAPENPVVEVREQAVEGGEVELSCLVPRSRPAAVLRWYRDRKELKGVSSGQENGKVWSVASTVRFRVDRKDDGGIVICEAQNQALPSGHSKQTQYVLDVQYSPTARIHASQAVVREGDTLVLTCAVTGNPRPNQIRWNRGNESLPERAEAVGETLTLPGLVSADNGTYTCEAANKHGHARALYVLVVYDPGAVVEAQTSVPY
notes: also called soluble Necl-4; soluble Necl4; not shown: constant region (Fc) of human IgG1
B1: the binding result in experiment [1] was “no binding”.

B2: Necl1-Fc (extracellular domain of Necl1 fused to the constant region of human IgG1) (Fc fusion)
chain: NLSQDGYWQEQDLELGTPAPLEEALSSTVWSNPDLLASQDSQPWTSDETVVAGGTVVLKCQVKDHEDSSLQWSNPAQQTLYFGEKRALRDNRIQLVSSTPHELSISISNVALADEGEYTCSIFTMPVRTAKSLVTVLGIPQKPIITGYKSSLREKETATLNCQSSGSKPAAQLAWRKGDQELHGDQTRIQEDPNGKTFTVSSSVSFQVTRDDDGANVVCSVNHESLKGADRSTSQRIEVLYTPTAMIRPEPAHPREGQKLLLHCEGRGNPVPQQYVWVKEGSEPPLKMTQESALIFPFLNKSDSGTYGCTATSNMGSYTAYFTLNVNDPSPVPSSSST
notes: Produced in HEK 293T cells; also called soluble Necl1; Nel1-Fc; not shown: constant region (Fc) of human IgG1
On to B2, for which the binding result in experiment [2] is on record as “no binding”.

Source of the values: patent US20100150924A1 (published 2010).
